What was measured:
[1] = molecular target: T1, human B7-H3 expressed on a cell surface (human cancer cell lines) (human, UniProt Q5ZPR3 29-534); test: flow cytometry, HCC1954 cells, antibody 10 ug/ml
T1 construct: whole, on cells; also called cell surface expression B7-H3 antigen
T1 sequence (looked up): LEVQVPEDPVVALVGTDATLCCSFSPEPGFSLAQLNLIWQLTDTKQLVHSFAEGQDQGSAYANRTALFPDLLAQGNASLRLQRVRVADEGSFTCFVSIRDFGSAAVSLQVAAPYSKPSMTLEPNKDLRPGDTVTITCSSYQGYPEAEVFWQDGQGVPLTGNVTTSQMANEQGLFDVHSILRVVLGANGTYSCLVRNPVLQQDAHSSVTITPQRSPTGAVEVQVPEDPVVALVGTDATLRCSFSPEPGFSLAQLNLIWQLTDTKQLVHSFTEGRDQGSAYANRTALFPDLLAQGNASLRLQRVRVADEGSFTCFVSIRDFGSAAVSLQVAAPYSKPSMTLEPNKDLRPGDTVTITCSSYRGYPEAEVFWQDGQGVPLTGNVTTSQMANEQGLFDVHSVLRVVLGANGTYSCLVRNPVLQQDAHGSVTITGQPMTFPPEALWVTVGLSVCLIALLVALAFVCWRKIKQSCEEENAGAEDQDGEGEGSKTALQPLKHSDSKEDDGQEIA
Text: (§1) Using various kinds of cancer cells A2780 (human ovarian cancer, ECACC, 93112519), SKOV-3 (human ovarian adenocarcinoma, ATCC® HTB-77™) OVCAR-3 (human ovarian adenocarcinoma, ATCC® HTB-161™), HCT116 (colon cancer cell, ThermoFIshcer Sci), HT29 (olorectal adenocarcinoma, ATCC® HTB-38™), DLD-1 (colorectal adenocarcinoma cell lines, ATCC® CCL-221™), Calu-6 (Non-small-cell lung carcinoma, ATCC® HTB-56™), HCC1954 (TNM stage IIA, grade 3, ductal carcinoma, ATCC® CRL-2338™), HCC1187 (TNM stage IIA, ATCC® CLC-2322™), renal cancer cell line 786-0 (renal cell adenocarcinoma, ATCC® CRL-1932™), A498 (kidney carcinoma, ATCC® HTB-44™), Panc-1 (pancreas epithelioid carcinoma, TCC CRL-1469™), NCI-N87 (gastric carcinoma, TCC CRL-5822™), HeLa (cervix adenocarcinoma, ATCC® CCL-2™), JeKo-1 (Lymphoma, ATCC® CRL-3006™) and FACSCalibur (BD Biosciences) device, the degree of binding of anti-B7-H3 antibody to B7-H3 was measured as follows.
(§2) After dissociating each cell line and washing it with PBS buffer, the number of cells was counted and adjusted to 2×10^5 cells/200 µl PBS, and then was treated with 10 µg/ml of B7-H3 monoclonal antibodies prepared in Example 2. Reaction was allowed at 4° C. for 1 hr. […] After the reaction, cells were washed in PBS and analyzed using the FACSCalibur device. […]

[2] = molecular target: T1, human B7-H3 expressed on a cell surface …; test: flow cytometry, HT29 cells, antibody 10 ug/ml
Text: as §1, §2

[3] = molecular target: T1, human B7-H3 expressed on a cell surface …; test: flow cytometry, Panc-1 cells, antibody 10 ug/ml
Text: as §1, §2

[4] = molecular target: T1, human B7-H3 expressed on a cell surface …; test: flow cytometry, JeKo-1 cells, antibody 10 ug/ml
Text: as §1, §2

[5] = molecular target: T1, human B7-H3 expressed on a cell surface …; test: flow cytometry, SKOV-3 cells, antibody 10 ug/ml
Text: as §1, §2

[6] = molecular target: T1, human B7-H3 expressed on a cell surface …; test: flow cytometry, A2780 cells, antibody 10 ug/ml
Text: as §1, §2

[7] = molecular target: T1, human B7-H3 expressed on a cell surface …; test: flow cytometry, HCT116 cells, antibody 10 ug/ml
Text: as §1, §2

[8] = molecular target: T1, human B7-H3 expressed on a cell surface …; test: flow cytometry, MDA-MB-468 cells, antibody 10 ug/ml
[9] = molecular target: T1, human B7-H3 expressed on a cell surface …; test: flow cytometry, 786-0 cells, antibody 10 ug/ml
Text: as §1, §2

[10] = molecular target: T1, human B7-H3 expressed on a cell surface …; test: flow cytometry, HCC1187 cells, antibody 10 ug/ml
Text: as §1, §2

[11] = molecular target: T1, human B7-H3 expressed on a cell surface …; test: flow cytometry, OVCAR-3 cells, antibody 10 ug/ml
Text: as §1, §2

[12] = molecular target: T1, human B7-H3 expressed on a cell surface …; test: flow cytometry, NCI-N87 cells, antibody 10 ug/ml
Text: as §1, §2

[13] = molecular target: T1, human B7-H3 expressed on a cell surface …; test: flow cytometry, Calu-6 cells, antibody 10 ug/ml
Text: as §1, §2

[14] = molecular target: T1, human B7-H3 expressed on a cell surface …; test: flow cytometry, A-498 cells, antibody 10 ug/ml
Text: as §1, §2

[15] = molecular target: T1, human B7-H3 expressed on a cell surface …; test: flow cytometry, MCF-7 cells, antibody 10 ug/ml
[16] = molecular target: T1, human B7-H3 expressed on a cell surface …; test: flow cytometry, Hela cells, antibody 10 ug/ml
Text: as §1, §2

[17] = molecular target: T1, human B7-H3 expressed on a cell surface …; test: flow cytometry, DLD-1 cells, antibody 10 ug/ml
Text: as §1, §2

[18] = molecular target: T1, human B7-H3 expressed on a cell surface …; test: flow cytometry, MDA-MB-231 cells, antibody 10 ug/ml

B1: 84D (comparison group antibody, Enoblituzumab) (antibody, V domains shown)
VH: EVQLVESGGGLVQPGGSLRLSCAASGFTFSSFGMHWVRQAPGKGLEWVAYISSDSSAIYYADTVKGRFTISRDNAKNSLYLQMNSLRDEDTAVYYCGRGRENIYYGSRLDYWGQGTTVTVSS
VL: DIQLTQSPSFLSASVGDRVTITCKASQNVDTNVAWYQQKPGKAPKALIYSASYRYSGVPSRFSGSGSGTDFTLTISSLQPEDFATYYCQQYNNYPFTFGQGTKLEIK
- MFI Ratio [1]: 14 ratio
- MFI Ratio [2]: 8.9 ratio
- MFI Ratio [3]: 9 ratio
- MFI Ratio [4]: 2.9 ratio
- MFI Ratio [5]: 11.9 ratio
- MFI Ratio [6]: 13.1 ratio
- MFI Ratio [7]: 5.9 ratio
- MFI Ratio [8]: 8.6 ratio
- MFI Ratio [9]: 20 ratio
- MFI Ratio [10]: 14.9 ratio
- MFI Ratio [11]: 13.7 ratio
- MFI Ratio [12]: 12.8 ratio
- MFI Ratio [13]: 23.2 ratio
- MFI Ratio [14]: 24 ratio
- MFI Ratio [15]: 78 ratio
- MFI Ratio [16]: 23.5 ratio
- MFI Ratio [17]: 10.7 ratio
- MFI Ratio [18]: 5.4 ratio
